*1 amine or outer side, *2 acyl side, *3 side chain or, on linkers, in order; H or OH if unused. Bridges are numbered along the chain shown (N, C = ends). Where no end group is shown, it is not given here. Side-chain parts run from the residue outwards. The star is where a group is joined. C18 diacid = O=C(O)CCCCCCCCCCCCCCCCC(=O)*; γGlu = O=C(O)[C@H](CCC(=O)[*:2])N[*:1]; AEEA = NCCOCCOCC(=O)O
Assays:
[1] = Pharmacokinetic properties of CGRP and analogues, plasma level by CGRP ELISA; type: in vivo; settings: male, Sprague Dawley, rat, sc, SD rats, single s.c. injection, Analog alpha1 151 nmol/kg, Analogue beta1 231 nmol/kg
Procedure: Male Sprague Dawley rats (n=24) weighing approximately 250 g were used for the combined pharmacokinetic (T½, Cmaxetc.) and pharmacodynamic (GLP-1 release) study. The rats were divided in 4 groups with n=6 rats per group. The rats were treated with a single subcutaneous injection (1 ml/kg) of vehicle, alpha-CGRP (138 nmol/kg), Analogue beta1 (231 nmol/kg) or Analog alpha1 (151 nmol/kg). Blood (200 μl) was sampled from vena sublingualis from unanaesthetised rats pre-dose and at 0.5, 1, 3, 7 and 24 hours post dosing. Blood was collected in tubes containing EDTA. The samples were kept on ice and centrifuged. The plasma was kept at −20° C. until analysis for CGRP analog and total GLP-1.
A commercial available kit (Human CGRP ELISA, cat. #A05481, SPIbio) was used for monitoring the plasma levels of CGRP-analogues. Briefly, the assay was a two-sited enzyme-linked immuno sorbent assay (ELISA) using two antibodies against human CGRP. A monoclonal antibody was immobilized to the surface of micro plate wells. Five micro liter of plasma samples or calibrators were applied to the appropriate wells and incubated for 2 hours together with 100 μL buffer and 100 μL AChE-conjugated Fab′ fragment. […] The color intensity was determined by spectrophotometer at 405 nm. […] The lower limit of quantification of the modified CGRP assay was approximately 750 pM and the imprecision was (% CV)<10%.

[2] = biological target: CGRP receptor (calcitonin receptor-like receptor (CRLR), receptor activity modifying protein-1 (RAMP1)) (Homo sapiens, UniProt O60894+Q16602); assay: CGRP-induced cAMP accumulation in CGRP receptor expressing cells (CHO, CRE luciferase reporter); type: cell-based; settings: for pEC50-ratio relative to human alpha-CGRP, measured by the CGRP-induced cAMP accumulation in CGRP receptor expressing cells: crude SPOT-synthesised peptides, photo-cleaved, in DMSO, CGRP-1-luc cell line
CGRP receptor (calcitonin receptor-like receptor (CRLR), receptor activity modifying protein-1 (RAMP1)), sequence (Q16602 23-461, species assumed): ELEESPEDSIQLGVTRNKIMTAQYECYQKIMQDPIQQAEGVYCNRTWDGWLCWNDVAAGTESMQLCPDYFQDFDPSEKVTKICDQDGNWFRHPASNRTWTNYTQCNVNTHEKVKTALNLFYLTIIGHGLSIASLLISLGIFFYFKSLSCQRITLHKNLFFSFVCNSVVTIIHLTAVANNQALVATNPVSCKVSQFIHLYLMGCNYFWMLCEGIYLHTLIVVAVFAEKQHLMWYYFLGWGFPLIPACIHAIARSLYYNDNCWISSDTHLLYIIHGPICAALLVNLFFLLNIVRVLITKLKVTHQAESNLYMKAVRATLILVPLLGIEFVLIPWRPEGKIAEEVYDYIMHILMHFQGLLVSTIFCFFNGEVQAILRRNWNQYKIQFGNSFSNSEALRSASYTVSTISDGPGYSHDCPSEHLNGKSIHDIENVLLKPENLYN
CGRP receptor (calcitonin receptor-like receptor (CRLR), receptor activity modifying protein-1 (RAMP1)), sequence (O60894 27-148, species assumed): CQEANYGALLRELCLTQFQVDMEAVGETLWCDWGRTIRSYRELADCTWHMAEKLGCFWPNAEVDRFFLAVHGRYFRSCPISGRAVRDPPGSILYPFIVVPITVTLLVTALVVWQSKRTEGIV
Procedure: Chinese hamster ovary (CHO) cells were stably transfected with calcitonin receptor-like receptor (CRLR), receptor activity modifying protein-1 (RAMP1) and CRE luciferase (cAMP responsive element for control of luciferase gene expression). Luciferase is a reporter-gene reporting accumulation of intracellular cAMP).
Cells were cultured in F12 media supplemented with GlutaMAX™ (Gibco cat no 31765-027), FBS (10%, Gibco 16140-071), Penicillin-streptomycin (1%, Lonza DE-17-602E), G418 (400 μg/ml, Gibco 10131-027), Blasticidine (10 μg/ml, Corning cat no 15205), Hygromycin (400 μg/ml, Calbiochem cat no 400052).
Cells were seeded in a 96 well plate (Packard #6005180), 20000 cells/well in 100 μl media on the day before experimentation. On the day of experimentation media was replaced by assay medium (Dulbecco's media w/o phenol red (Gibco cat no 11880-028) supplemented with 10% FBS (10%, Gibco 16140-071), Hepes (10 mM, Gibco cat no 15630), GlutaMAX™ (2 mM, Gibco cat no 35050), 50 μl/well.
Peptides were diluted in assay media before added to cells for stimulation, 50 μl/well.
Cells were incubated 5% CO2, 37° C. for 4 hours.
Assay medium and peptides were replaced by phosphate buffered saline (PBS, Gibco cat no 14040-091), 100 μl/well and LucLite™ (PerkinElmer, cat no 6076759), 100 μl/well were added. The plate was sealed before incubation for 30 min at room temperature (21° C.). Luciferase activity (luminescens, 7 s/well) was measured (TopCount®, NXT, Packard).
Dose-response curves were fitted by use of GraphPad Prism software and pEC50 values were calculated. Data were given as mean±SEM, n=2 and each analogue was tested twice.

[3] = CGRP-induced reduction in food intake by automatic food intake measurements (FeedWin); type: in vivo, Sprague Dawley (SD) rats; settings: SD rats, s.c., monitored for 48 hours, FIG. 4
Excerpt: Upon arrival male Sprague Dawley (SD) rats were housed two per cage with a dividing wall between them. They were housed at reversed diurnal rhythm and with environmental enrichment. The rats were acclimatized to reversed diurnal rhythm for at least 1 week before being transferred to the experimental system cages (single housed). They were acclimatized to the experimental system cages for an additional 5-6 days before start of the experiment. The rats had ad libitum access to food (Altromin 1324) and water during acclimatization periods.
One day before start of the study the rats were divided in three or four groups (n=5-8) based on body weight (250-300 g).
16 hours before start of the study the rats were fasted. Food was returned in connection with dosing. The rats received a single injection subcutaneously (s.c., 1 ml/kg) with vehicle or CGRP analogue. Intraperitoneally dosing (i.p., 1 ml/kg) was used in the first experiment of the al analogue. The effect of analogues on food and water consumption was examined in a “FeedWIN” system (Ellegaard Systems A/S, Faaborg, Denmark). The system contained 32 stations. In each station the continuous water and food consumption for a single rat was recorded.
A station consisted of a cage with metal lid and two scales placed on each side of the cage. […] Data was collected each 15 minutes and up to 48 hours and expressed as accumulated food intake (Mean±SEM).

Compound	pEC50-ratio relative to human alpha-CGRP, measured by the CGRP-induced cAMP accumulation in CGRP receptor expressing cells [2]	also measured
CC(C)C[C@H](NC(=O)CNC(=O)[C@H](C)NC(=O)[C@H](CC(C)C)NC(=O)[C@H](CCCNC(=N)N)NC(=O)[C@H](Cc1c[nH]cn1)NC(=O)[C@@H](NC(=O)[C@@H](NC(=O)[C@@H]1CSSC[C@H](NC(=O)[C@H](CO)NC(=O)COCCOCCNC(=O)CC[C@H](NC(=O)CCCCCCCCCCCCCCCCC(=O)O)C(=O)O)C(=O)N[C@@H](CC(=O)O)C(=O)N[C@@H]([C@@H](C)O)C(=O)N[C@@H](C)C(=O)N[C@@H]([C@@H](C)O)C(=O)N1)C(C)C)[C@@H](C)O)C(=O)N[C@@H](CC(C)C)C(=O)N[C@@H](CO)C(=O)N[C@@H](CCCNC(=N)N)C(=O)N[C@@H](CO)C(=O)NCC(=O)NCC(=O)N[C@H](C(=O)N[C@H](C(=O)N[C@@H](CCCCN)C(=O)N[C@@H](CC(N)=O)C(=O)N[C@@H](CC(N)=O)C(=O)N[C@@H](Cc1ccccc1)C(=O)N[C@H](C(=O)N1CCC[C@H]1C(=O)N[C@H](C(=O)N[C@@H](CC(N)=O)C(=O)N[C@H](C(=O)NCC(=O)N[C@@H](CO)C(=O)N[C@@H](CCCCN)C(=O)N[C@@H](C)C(=O)N[C@@H](Cc1ccccc1)C(N)=O)C(C)C)[C@@H](C)O)C(C)C)C(C)C)C(C)C [Analogue alpha 1, N-alpha-[2-(2-{2-[(S)-4-Carboxy-4-(17-carboxyheptadecanoylamino)butyrylamino]ethoxy}ethoxy)acetyl][Ser1]alpha-human CGRP peptide]	–	Cmax [1]: 250 nM; half-life ([1]; read-out: T½): > 7 h; EC50 [2]: 0.09 nM
ACDTATCVTHRLAGLLSRSGGVVKNNFVPTXVGSKAF (ACDTATCVTHRLAGLLSRSGGVVKNNFVPTK([AEEA-AEEA-γGlu-C18 diacid])VGSKAF; disulfide 2-7; ends not checked) [Acylation Position 31, human alpha CGRP, position 31 replaced by X, the acylated L-lysine; Cys2-Cys7 disulfide]	0.44	–
ACDTATCVTHRLAGLLSRSGGVVKNNFVXTNVGSKAF (ACDTATCVTHRLAGLLSRSGGVVKNNFVK([AEEA-AEEA-γGlu-C18 diacid])TNVGSKAF; disulfide 2-7; ends not checked) [Acylation Position 29, human alpha CGRP, position 29 replaced by X, the acylated L-lysine; Cys2-Cys7 disulfide]	0.41	–
ACDTATCVTHRLAGLLSRSGGVVKNNFXPTNVGSKAF (ACDTATCVTHRLAGLLSRSGGVVKNNFK([AEEA-AEEA-γGlu-C18 diacid])PTNVGSKAF; disulfide 2-7; ends not checked) [Acylation Position 28, human alpha CGRP, position 28 replaced by X, the C18 diacid-gamma-Glu-OEG-OEG acylated L-lysine; Cys2-Cys7 disulfide]	0.62	–
ACDTATCVTHRLAGLLSRSGGVVKNXFVPTNVGSKAF (ACDTATCVTHRLAGLLSRSGGVVKNK([AEEA-AEEA-γGlu-C18 diacid])FVPTNVGSKAF; disulfide 2-7; ends not checked) [Acylation Position 26, human alpha CGRP, position 26 replaced by X, the acylated L-lysine; Cys2-Cys7 disulfide]	0.38	–
ACDTATCVTHRLAGLLSRSGGVVKXNFVPTNVGSKAF (ACDTATCVTHRLAGLLSRSGGVVKKNFVPTNVGSKAF; cyclised or stapled) [Acylation Position 25, human alpha CGRP, position 25 replaced by X, the acylated L-lysine; Cys2-Cys7 disulfide]	0.23	–
ACDTATCVTHXLAGLLSRSGGVVKNNFVPTNVGSKAF (ACDTATCVTHK([AEEA-AEEA-γGlu-C18 diacid])LAGLLSRSGGVVKNNFVPTNVGSKAF; disulfide 2-7; ends not checked) [Acylation Position 11, human alpha CGRP, position 11 replaced by X, the acylated L-lysine; Cys2-Cys7 disulfide]	0.28	–
ACDXATCVTHRLAGLLSRSGGVVKNNFVPTNVGSKAF (ACDK([AEEA-AEEA-γGlu-C18 diacid])ATCVTHRLAGLLSRSGGVVKNNFVPTNVGSKAF; disulfide 2-7; ends not checked) [Acylation Position 4, human alpha CGRP, position 4 replaced by X, the acylated L-lysine; Cys2-Cys7 disulfide]	0.15	–
N-alpha-[2-(2-{2-[(S)-4-Carboxy-4-(17-carboxyheptadecanoylamino)butyrylamino]ethoxy}ethoxy)acetyl][Ser1]beta-human CGRP peptide [Analogue beta 1]	–	accumulated food intake [3]: Reduction in accumulated food intake
